Literature values as cited in publication PMC3076547.

Molecular target: Nef (Human immunodeficiency virus 1) (UniProt P04324)

For Hck SH3 (from UniProt P08631), the Kd is listed as 250 nM.
